Target: T1, recombinant human GPNMB (human, UniProt Q14956 23-498)
T1 construct: also called GPNMB purified from HEK293 cells; GPNMB antigen
T1 sequence: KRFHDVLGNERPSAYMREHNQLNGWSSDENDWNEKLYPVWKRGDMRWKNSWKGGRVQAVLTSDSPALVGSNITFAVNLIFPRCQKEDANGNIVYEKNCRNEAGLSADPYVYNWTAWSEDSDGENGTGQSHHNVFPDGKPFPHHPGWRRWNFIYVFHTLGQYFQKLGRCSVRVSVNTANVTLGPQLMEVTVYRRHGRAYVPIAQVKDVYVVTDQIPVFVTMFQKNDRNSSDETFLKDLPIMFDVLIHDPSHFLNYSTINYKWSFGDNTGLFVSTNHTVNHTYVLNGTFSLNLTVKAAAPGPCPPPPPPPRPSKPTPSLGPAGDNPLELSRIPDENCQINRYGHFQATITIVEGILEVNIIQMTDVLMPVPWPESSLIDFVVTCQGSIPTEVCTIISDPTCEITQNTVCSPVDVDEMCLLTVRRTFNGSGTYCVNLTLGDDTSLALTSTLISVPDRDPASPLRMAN
Test: SPR, Biacore T-200; GPNMB amine-coupled on CM5 chip, bispecific antibody as analyte at 0.078 to 5 nM
Protocol: Quantitative binding capacity (affinity) of the purified bispecific antibody to recombinant human GPNMB was measured using Biacore T-200 (GE Healthcare, USA) that is a biosensor. GPNMB purified from HEK293 cells was fixed on a CM5 chip (GE Healthcare) using an amine-carboxyl reaction until 200 Rmax was obtained. Next, the GPNMB/CD3 bispecific antibody, which was serially diluted in HBS-EP buffer (10 mM HEPES, pH 7.4, 150 mM NaCl, 3 mM EDTA, 0.005% Surfactant P20), was allowed to bind thereto in a concentration range of 0.078 nM to 5 nM for 120 seconds, and flowed at a flow rate of 30 μL/min for 1800 seconds so that dissociation was achieved. Dissociation of the antibody bound to GPNMB was induced by flowing 10 mM glycine-HCl (pH 1.5) for 30 seconds at a flow rate of 30 μL/min (Table 2). The affinity was obtained as kinetic rate constants (Kₒₙ and Koff) and equilibrium dissociation constant (KD) using Biacore T-200 Evaluation Software (Table 3).

B1: GPNMB (SEQ ID NO: 35)/A15 (SEQ ID NO: 36) bispecific antibody (bispecific antibody, human IgG1, lambda, L234A L235A)
chain 1: not shown
chain 2: QAVVTQEPSLTVSPGGTVTLTCRSSTGAVTTSNYANWVQQKPGQAPRGLIGGTNKRAPWTPARFSGSLLGGKAALTLSGAQPEDEAEYYCALWYSNLWVFGGGTKLTVLGQPKANPTVTLFPPSSEELQANKATLVCLISDFYPGAVTVAWKADGSPVKAGVETTKPSKQSNNKYAASSYLSLTPEQWKSHRSYSCQVTHEGSTVEKTVAPTECSGGGSGGGSEGGGSEGGGSEGGGSEGGGSGGGSGEVQLVESGGGLVQPGGSLKLSCAASGFTFNTYAMNWVRQASGKGLEWVGRIRSKYNNYATYYADSVKDRFTISRDDSKNTAYLQMNSLKTEDTAVYYCVRHGNFGNSYVSWFAYWGQGTLVTVSSASTKGPSVFPLAPSSKSTSGGTAALGCLVKDYFPEPVTVSWNSGALTSGVHTFPAVLQSSGLYSLSSVVTVPSSSLGTQTYICNVNHKPSNTKVDKKVEPKSCDKTHTCPPCPAPEAAGGPSVFLFPPKPKDTLMISRTPEVTCVVVDVSHEDPEVKFNWYVDGVEVHNAKTKPREEQYNSTYRVVSVLTVLHQDWLNGKEYKCKVSNKALPAPIEKTISKAKGQPREPRVYTLPPCRDELTKNQVSLTCLVKGFYPSDIAVEWESNGQPENNYKTTPPVLVSDGSFTLYSKLTVDKSRWQQGNVFSCSVMHEALHNHYTQKSLSLSPG
notes: Expressed in Expi293F cells, then purified by Protein A and size exclusion; also called anti-GPNMB/anti-CD3 bispecific antibody; GPNMB/CD3 bispecific antibody
Kd: 1.1 nM

From patent publication US20220135679A1 (GREEN CROSS, published 2022)
